Target: IGHV3-21/IGLV3-21^G110 BCR on murine TKO cells (human) (UniProt P01871)
Test: flow cytometry dot plot, cell mix B (1:1 IGHV3-21/IGLV3-21^G110 BCR TKO cells and BCR-negative TKO cells), 5 µg/ml mAb01-01-APC and 2 µg/ml anti-human IgM-PE

Chain of IGHV3-21/IGLV3-21^G110 BCR on murine TKO cells (human) (P01871 other isoform, or with tags, fused parts or gaps, chain 1 of 2): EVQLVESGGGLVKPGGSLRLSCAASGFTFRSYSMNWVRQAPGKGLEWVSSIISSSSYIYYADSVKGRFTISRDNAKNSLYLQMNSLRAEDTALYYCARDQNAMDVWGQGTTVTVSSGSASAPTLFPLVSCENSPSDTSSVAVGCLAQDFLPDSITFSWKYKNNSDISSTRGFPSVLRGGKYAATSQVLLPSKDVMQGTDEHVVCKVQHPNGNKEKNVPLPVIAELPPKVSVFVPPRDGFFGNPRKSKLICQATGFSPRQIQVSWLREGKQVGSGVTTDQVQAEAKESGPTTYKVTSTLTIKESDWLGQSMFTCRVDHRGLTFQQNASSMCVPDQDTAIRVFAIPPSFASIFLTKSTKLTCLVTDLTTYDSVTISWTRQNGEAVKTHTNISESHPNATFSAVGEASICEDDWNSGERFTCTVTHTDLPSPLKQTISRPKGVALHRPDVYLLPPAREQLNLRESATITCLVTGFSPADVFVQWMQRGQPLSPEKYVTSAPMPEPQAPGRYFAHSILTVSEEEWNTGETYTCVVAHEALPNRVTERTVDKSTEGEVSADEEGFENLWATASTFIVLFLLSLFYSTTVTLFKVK
Chain of IGHV3-21/IGLV3-21^G110 BCR on murine TKO cells (human) (light, as listed by the source, chain 2 of 2): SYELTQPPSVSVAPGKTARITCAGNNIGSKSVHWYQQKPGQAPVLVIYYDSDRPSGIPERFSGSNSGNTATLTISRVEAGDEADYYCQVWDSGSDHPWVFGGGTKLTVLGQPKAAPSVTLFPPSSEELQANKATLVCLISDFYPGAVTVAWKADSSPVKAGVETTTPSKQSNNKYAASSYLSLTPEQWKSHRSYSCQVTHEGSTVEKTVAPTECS

B1: mAb01-01 (antibody, mouse IgG1, kappa, V domains shown)
VH: QVQLQQSGPGLVQPSQSLSITCTVSGFSLTSYGIHWVRQSPGKGLEWLGVIWRGGGTDSNAAFMSRLSITKDNSKSQVFFKMNSLQADDTAIYYCARSRYDEEESMNYWGQGTSVTVSS
VL: QIVLTQSPASLSASVGETVTITCRASGNIHSYLAWYQQKQGKSPQLLVYNAKTLADGVPSRFSGSGSGTQYSLKINSLQPEDFGSYYCQHFWNTPPTFGAGTKLELKR
In the case of B1, the share of gated cells (P1) in quadrant Q1 (anti-IgM-PE positive, mAb01-01-APC negative) is reported as 42.2% and the share of gated cells (P1) in quadrant Q2 (anti-IgM-PE positive, mAb01-01-APC positive) is reported as 1.11%.
